Data published in US20250034594A1, “RNA-GUIDED GENOME RECOMBINEERING AT KILOBASE SCALE” (THE BOARD OF TRUSTEES OF THE LELAND STANFORD JUNIOR …, priority 2021, published 2025).

B1: SSAP_237: SEQ ID NO: 406; Paenibacillus popilliae ATCC 14706 (protein, listed as Paenibacillus popilliae)
chain: STSHLLTIHNNLEKLIDSKREAMPKSFNKTRFLQNCMTVLQDTKDVGKCDPQSVARTLLKGAFLGLDFFNKECYAITYGGSVQFQTDYKGEKKLAKKYSVRPVKDIYAKLVREGDEFIEEIKDGQPTVQFKPLPFNDSEIKGAFAVSLFEDDGLAYEVMSVAEIELTRKNYSKQPNGQAWVKSKGEMYKKTVLRRLCKNIELDFDTIEQAQAFEDSSDFEFNKEPKQAQQSPLNPQATVIDAEYEEVKEESDNETNQE
B2: SSAP_273: SEQ ID NO: 442; Virgibacillus (multispecies) (protein, listed as Virgibacillus sp.)
chain: ATNDSVKNQIANKNQGSNQVNPNNLGLKQLLSTPTMRKKFDEVLDKKAPQFMSSLLNLYSNDSYLQKAEPMSVVTSALVAATLDLPIDKNLGYAWIVPYGGKAQFQLGYKGYIQLALRTGQYRNINVIEVYEGELKSFNRLTEEMELDFEQKQSDKVIGYTGYFELINGFRKTVYWSKEEIEKHKKRFSKSDFGWKKDWDAMAKKTVIRNMLNKWGILSIDMQKGIVEDNKDPIEKANEFDEQDIIEADFSEVNDDQEIDFSDAQ
B3: SSAP_290: SEQ ID NO: 459; Anaerovirgula multivorans (protein)
chain: DAKHLTVVHQNLNTLLKAKADALPKGFNQTRFLQNCMTVLQDTKDIESVEPKSVARTMLKGAFLGLDFFNKECYAIVYNKKAGNSWIKTLEFQTDYKGEIKLAKKYSINTIKDIYAKLVREGDEFEEGVKDGKQVINFKPKPFNNNKILGAFAVAYYENGSMIYDTMSVEEIESVKKAYAKADKEGKYSKAWIESTGEMYKKTVLRRLCKLIELDFDTIEQKQAFDEGSGMEFKQEGKTDKPKSSLEAEFVEAEYEEVEESETSEVVEE
modifications: Anaerovirgula multivorans
B4: SSAP_249: SEQ ID NO: 418; environmental Halophage eHP-30 (protein)
chain: TEQNQTPAKTESKSPIKAQLYKDNVQQRFQELLGERASAFMTSVMSVVKDNDQLSQAEPSSVLNAAMTAATLDMPIDNNLGMAYIVPYKDGKSGKTYAQFQLGYKGFIQLAQRSGQFKTISATPVRQGQIVTADPLRGYEFDFTQGQDKEVVGYAAYFALLNGFEKTLYMSKAEMEQHAASYAAGYKKGYSNWNRKFDEMALKTVIKQLLSKYAPLSVDMQKAQQTDQTVSVEEPNAIEQQEAAPEIDASSNNNQNQ
modifications: environmental Halophage eHP-30
B5: SSAP_132: SEQ ID NO: 301; Enterocloster clostridioformis (protein, listed as Enterocloster clostridioformis)
chain: GIDVKHELEKRAAGQDKPVKLTRNMTIADMVKALEPEIKRALPAILTPERFTRMALSAVNNTPELANCTPMSFIAALMNAAQLGLEPNTPLGQAYLIPYKNKGTLECQFQLGYKGLIDLAYRTGQIQIIQAQAVREFDYFEYQYGLDSRLVHKPGNEERGQITFIYGLFKLSNGGYGFEVSNKAEMDAFAAKYSKSFGSKYSPWTEDYESMAKKTVIKRALKYAPVSSDFQKALSLDETVKSEIAVDMSEIRNDCIPADMGTEAA
B6: SSAP_320: SEQ ID NO: 489; Pseudoalteromonas sp. MQS005 (protein, listed as Pseudoalteromonas sp.)
chain: SISQQDYENLLYSKLYECESQYQAYLAEHNEKLNFNAELNYMYKAVMSGVGIEGGFPYTPLESIVESFLKAAKLGLSLDPSEQFCFLRSQYDHSTGLYHTELGLGYKGVLHLAYRSGKVKQIVSNVFYNKDNFQFNGPNSKVTHTMTVLSTSARGNLAGGYCQTELVDGSFIVTVMPPEEILAIEEQGKSVGNPAWLSAHVNQMREKTLILRHWKTLYPAIYSSSLLDSAQIFDDECEEFPFSSPSQGFSESQTIGSY
B7: SSAP_95: SEQ ID NO: 264; Proteus terrae (protein, listed as Proteus terrae)
chain: SNPPLAQADLQKTQGTEVREKTKDQMLVEFINKPNMKAQLAAALPRHMAPDRMIRIVTTEIRKTPELANCDMQSFVGAVVQCSQLGLEPGNALGHAYILPFEKKRKQGNQWVTVRTDAQLIIGYRGMIDLARRSGQIVSISARTVRQGDSFHFEYGLNENLTHVPGENEDSPITHVYAVARLKDGGVQFEVMTHNQIEKVRTSSKAGQNGPWVSHWEEMAKKTVIRRLFKYLPVSIEMQKAVILDEKAEANVDQENSSVFEGEFEEVGQGA
B8: SSAP_26: SEQ ID NO: 195 (protein)
chain: TVQLVQPRNSDEYDFDQTKLDLIKRTICKGATNDELQLFIHACKRTGLDPFMRQIFAVKRWDSSTKKEIMTIQTGIDGYRLIADRTGKYAPGKDTEFGYDNKGNIRWAKAYIKKMTPDGQWHEISAIAFWEEYVQTTREGKSTLFWLKKSHIMLSKCTEALALRKTFPAERSGIYTKEEMAQEFSPLEEHLVERIAASRNDQGRS
B9: SSAP_96: SEQ ID NO: 265; Plesiomonas shigelloides (protein)
chain: SNQRPPIATADLQKAQSQPPAAKPEQNLINFINQPSMKSQIAAALPRHMAPERMIRIITTEIRKTPKLATCDVQSFIGAVVQCSQLGLEPGGGLGHAYLLPFGNGKAESGKPNVQLIIGYRGMIDLARRSGQIVSISSRIVREGDQFHYEYGLNETLKHVPGDNESAPITHVYAVAKLKDGGTQFEVMSFNEIEKIRGQSKAGNDGPWIKHWEEMAKKTVIRRLFKYLPVSIEMQRAVILDEKAEADIEQDNASIIGAEYSVVENAA
modifications: Plesiomonas shigelloides
B10: SSAP_169: SEQ ID NO: 338; Streptomyces showdoensis (protein, listed as Streptomyces showdoensis)
chain: TSDARNAVARRAANVGQVEQAGEQPKPTMAQQIERMKPEIARALPKHMDADRIARIALTLIRKNPDLANCTTESFLGALMTCSQLGFEPGSPTQEAYIIPRKGQAEFQLGYQGMVTLFYQHPMASSVKVETVRENDYFEHEEGLEERLIHRPFADGPRGKAIAYYSVARLINGGRTFKVMYPAEIEERRQKLPSKNSPAWRDNYDEMAKKTVLRNHFKALPKSAELARALAHDGTVRTDWQPDAIDVPPEYLSEPQRPELEAGAQ
B11: SSAP_265: SEQ ID NO: 434; Clostridium coskatii (protein, listed as Clostridium coskatii)
chain: SDKKMVVLNESHTMLNKLLETKQEALPKDFNKARFLQNCMTVLQDTKGIEQCQPITVARTMLKGAFLGLDFFNKECYAIPYKDNLQFQTDYKGEIKLAKKYSFNPIKDIYAKIVRQGDDFQEAIINGQQTINFTPVPFNNGEIIGAFAVCLFQDGSMLYETMAKQEIENTRKNFSKAPNSPAWTKTPGEMYKKTVLRRLCKLIELDFDSVECKKVYNETSDFEFENQQHEVSNFDKKDIDEDKIVEADVEVQDDNENNVPEDGE
B12: SSAP_113: SEQ ID NO: 282; Acinetobacter sp. RIT592 (protein, listed as Acinetobacter sp.)
chain: ADLKNKLANKAAGTVTKTSPNAGMKQLMKSMSKEIEAALPSHMSSERFQRVALTAFGNNPKLMNCDPMSFIAAMMDSAQLGLEPNTPLGQAYLIPYGTKVQFQVGYKGLLELALRSGKIKTLYAHEVRENDTFEVKYGLHQDLIHEPVLKGNRGEVIGYYAVYHLDTGGHSFVFMTKDEVLEHAKGKSKTFNNGPWQTDFDAMAKKTVIKQLLKYAPLSIEMQKAVSSDETVKSKIDEDMSLVVDESDSIEANFEIKEDEDGQLDVYVK
B13: SSAP_57: SEQ ID NO: 226; Pirellula sp. SH-Sr6A (protein, listed as Pirellula sp.)
chain: SEATKEAKPETAIAKKPNGIKDWLKSDALKTQIASVAPKHMAPERVMRIALNAVSRTPKLADCTPESFMRCLLDLSSWGLVPDGRHAHLIPYGTECTLVLDYKGLVTLAYRSGWVKKIHADVVFEGDIFVYSLGTVCQHIPWEFRDDANKPEHKGHFRAAYCVVTMADGIEKHEVMTASEIDAIKAKSRSGNSGPWKDHYTEMAKKTVYRRASKWLPLSPEQADAMERDDDRIIDAVSVAVTQRLSKAAMPLIGANETGDTE

System: gene editing with Cas9
Assay: Screen of 322 new SSAP proteins, gene editing activity with Cas9 (Table 5)
Type: cell-based
Parameters: Cas9 with SSAP activity: scale not given here
Conditions: not given
Description: (§1) 322 new SSAP proteins were identified from sequence data, synthesized, and screened for activity with Cas9 and dCas9. Gene editing activities are shown below in Table 5, followed by amino acid sequences of the proteins.

| Molecule | Cas9 with SSAP activity |
| --- | --- |
| B1 | −7.473 |
| B2 | −1.654 |
| B3 | −1.166 |
| B4 | −3.033 |
| B5 | −7.323 |
| B6 | −1.322 |
| B7 | −0.020 |
| B8 | 0.692 |
| B9 | −0.322 |
| B10 | −1.842 |
| B11 | −0.932 |
| B12 | −3.728 |
| B13 | −3.376 |

Same assay, conditions: normalized

| Molecule | Cas9 with SSAP activity (normalized) |
| --- | --- |
| B2 | −0.724 |
| B3 | −0.249 |
| B4 | −0.543 |
| B5 | −1.345 |
| B6 | −0.932 |
| B7 | −0.011 |
| B8 | 1.723 |
| B9 | −1.581 |
| B10 | −1.968 |
| B11 | −0.510 |
| B12 | −3.241 |
| B13 | −0.549 |

System: gene editing with dCas9
Assay: Screen of 322 new SSAP proteins, gene editing activity with dCas9 (Table 5)
Type: cell-based
Parameters: dCas9 with SSAP activity: scale not given here
Conditions: not given
Description: as §1

| Molecule | dCas9 with SSAP activity |
| --- | --- |
| B1 | −3.513 |
| B2 | 1.896 |
| B3 | −3.506 |
| B4 | −3.279 |
| B5 | −3.318 |
| B6 | −3.288 |
| B7 | −3.325 |
| B8 | −3.399 |
| B9 | −3.416 |
| B10 | −3.497 |
| B11 | −3.182 |
| B12 | −3.134 |
| B13 | −3.405 |

Same assay, conditions: normalized

| Molecule | dCas9 with SSAP activity (normalized) |
| --- | --- |
| B1 | −0.512 |
| B2 | 2.101 |
| B3 | −0.681 |
| B4 | −0.575 |
| B5 | −0.536 |
| B6 | −0.449 |
| B7 | −0.539 |
| B8 | −0.852 |
| B9 | −1.995 |
| B10 | −0.528 |
| B11 | −0.478 |
| B12 | −3.818 |
| B13 | −0.557 |

System: gene editing with Cas9 and dCas9
Assay: Screen of 322 new SSAP proteins, activity across all experiments (Cas9 and dCas9, Table 5)
Type: cell-based
Parameters: scale not given here
Conditions: not given
Description: as §1

| Molecule | Activity across all experiments |
| --- | --- |
| B1 | −5.493 |
| B2 | 0.121 |
| B3 | −2.336 |
| B4 | −3.156 |
| B5 | −5.320 |
| B6 | −2.305 |
| B7 | −1.672 |
| B8 | −1.354 |
| B9 | −1.869 |
| B10 | −2.669 |
| B11 | −2.057 |
| B12 | −3.431 |
| B13 | −3.391 |
